Assay: soluble on expression in E. coli; label from the status in PepcDB or PDB records

Which “soluble on expression in E. coli” value does the source give for “KIYSGRILIPLQHILKELKRIRANSLNRRLKTTGNNDELEDMIETLNSMLDRLDSAFKAEKSFVSHASHELNNPITAIQGECEISLLKERSTGEYIEALQRISSESKRISNLIRHLLFLSRQDEELIKSNMEAMSLPDMLNDLIKMNERIRLHYQETGKAAT” here?
The value was “not soluble”.

With “MAKNSPQDLINREIFSTNLNMLMAKKNIKQIDIHNKLGIPKSTITGYVKGRSLPTAGNVQKLADFFGVLKSDIDPRFDSNNIETNSNIIPSTLQKVTSTLSQLEHKRQLNVLDYAETQLEQQNTVEEPQATYYTYNYYDHAASAGTGQYLNDVQVETIELPVDYDADFVIPVYGDSMEPEYHSGDYVFIKLSINLSDGDIGVFEYYGDAYIKQLVINDSGAFLHSLNDKYDDILIDRDSDFRIIGEVIGSFTSKS” as the sequence, how does the “soluble on expression in E. coli” value read?
Its value is “not soluble”.

With “MATGNRNPENFTSLSPIVKAPITDTLSVPLSQQGRICGFFESQFYRCMEAYGAKMGRKYCDLEHRDFQECVTGDKQKKRADAIREQRCKLFLDGKIAKPYVDNHPEPGQFKTDHFQWNRIN” as the sequence, how does the “soluble on expression in E. coli” value read?
The value was “not soluble”.

For “MSLQAAGNAPAKISMLLTDGAIGQITKPFPEGGPSAKEVWERETGIEIDIVGAPAEDIFKKVMQDVTTGGGTFDIYTGPWNSTGDLVSSGGAVNCSDFVAKYQPDWADPERGTPTPEMEKLLYTYAGDYYSFSLDGDFQTWFYLKGLYEDPRVQDAFLSETGVALKTPDTWEEVDRISKFFTGKDFGNGPMYGNGNLMSPFWGLATFYARFASMDFPNYHFFDEDGNPNLNSDLGIQCAEEHVRSFEWCPPDALTFTWAEAYATMWNLQIPHTAIYTNLVKFGDGYNADGTPKSKATGMIGSHLPVGRRFGDQLNRRSVLYYHITAWISSQSQHPEAVYLFLQWLSSTRTYTWMAGNPGGYFDPMQQANFKEPLVASTYHPYAMETIPQTIARSVPSINFAGQTALDNALDEEIQAAITGQKSAREAMDAAQSKWERIIKRQEGHHHHHH”, which “soluble on expression in E. coli” value is on record?
The value was “not soluble”.

With “MNRILSMIEQMEPGVVIFNDDLTISSVSSMVFMIFGHIPRERIFAGDLLDIHDEAAREKVKETLRLARQAQRHIPLSLKFITSEGHDRYLLVKLITVAERDPASEKICALFYDITPFIVAERKLTRVPVTSRGDIHLLRPEEIVYLKADNIYSLIYTEAGEFHSDLSLGAMEKRLSEDIFYRIHRSYLVNLAKVRKVHRESSECTVAAGGGEVRLPVSRDKMQRFLTDLGLK” as the sequence, how does the “soluble on expression in E. coli” value read?
The value was “not soluble”.

With “MAHHHHHHMSWQGPRVLVVGENQWEREAVSRALLNLAVRHGSPYGICYVDLDVAMPMVGCPGTVSAAFVEEPVTAPEDFGVMMPLTFFHGTASVTSATRKRYLDLCVCAAQAATSLGFANSKFEAGGFLIHSLSPSTEIQHDVLSDVLSIFAVTHVVVTGADRELEKFLYNAVLGRTVHFVRLPKLAGVQSPSSAGAEQRRRAQLERYFFGTPRTPLVPVRGVARMSELVLLHAETFEPLSWREVPDLGLAAVVWADTAASAAEANVAGFVALLEVGKQFVSFLAPSGGELPKPFLVVSPSLHLPRELVMPLPVT” as the sequence, how does the “soluble on expression in E. coli” value read?
The value was “not soluble”.

Which “soluble on expression in E. coli” value does the source give for “MGSDKIHHHHHHMNKTVDMTVNTIYLVGGGKGGVGKSVVALALVDHLQRRGVNTVLVENDTSNPDVMRAVHEEIACASFDLDTAGGWIDMVNYCDGHRDAVVVVSTAARNQDGVTRYGATLGSTLDELGRRLVVFWVINRQRDSLELLRQFSETFPDATVHVVRNGYYGAPERFVLYQDSKLRKSIEAKGRSLDFPELADRVADDLRSHRLSVRKAVETLPIGQRAELLRWRACYDAMFSQVTDDA” here?
Its value is “not soluble”.

Which “soluble on expression in E. coli” value does the source give for “MGSDKIHHHHHHMTQSPDLQAVLDYADAHMNDSLARLFDLVRIPSVSTVPAHAGDCRAAAQWLSDQLNDLGFDASVRPTGGHPMVVAHQTDADGPHVLFYGHYDVQPVVPLELWKTDPFEPTLEPQPNGDTHITGRGASDDKGQLLTFIEACRAWKAVTGRLPIKVSMLFEGEEESGSQSLGPFLEQTAEELRADVMMVCDTDMWDRDTPAITTMLRGLVGEEFTITTADRDLHSGMFGNAARNALQVASDAIAGLRGPDGGVTLPGFYDGVEDLAPEIKAQWKSLPFDQEGFLSDVGLSLPAGEDAYSIMEQIWARPSCEIHGVIGGYTDEGFKTVIPAKATAKVSFRLVAGQDPARIREAFRAHIRAYVPKDCSVEFTSHGASPALSLPLDSPYLTATREALSQEWGTEAALAGTGGSIPIVGEFKRQLGMDTLLVGFARFDNRIHSPNEKYDLSSFTGGIRSFVRVLAALSEIEAAAAP” here?
The value was “not soluble”.

For “MKPRNINNSLPLQPLVPDQENKNKKNEEKSVNPVKITMGSGLNYIEQESLGGKYLTHDLSIKIADISEEIIQQAILSAMSIYKFSITDDLMSMAVNELIKLTKIENNVDLNKFTTICTDVLSPRVTRHNKEKNKRHSTLLKNPLFNFHLEHHHHHH”, which “soluble on expression in E. coli” value is on record?
The value was “soluble”.

For “MAKDDVIEVEGTVLETLPNAMFKVELENGHVVLAHVSGKIRMNFIRILPGDKVTVELSPYDLNRGRITYRFK”, which “soluble on expression in E. coli” value is on record?
The value was “not soluble”.

For “MGSDKIHHHHHHMQSLPHDVVGYARDYRDGYVSVRHRHPRHQLIYAISGLMMAETDAMSHAIPPGYGLIVPAQQPHEIRMIGAVRLQSLYVRAGLPRADALARCRLVTISPLLAQLIAALCEMANPWPMPPRALHLSQLILIELLAAPVSPLALPYPTDPRLRRVCDGLIATPASPRSLDDWAAEAGMSRRTFSRHFQLETGLSFGKWAQRLRCQAALRGLAKGRPAARVARELGYANAYTMAAMMRRMT”, which “soluble on expression in E. coli” value is on record?
Its value is “not soluble”.

For “MGSDKIHHHHHHMSGTAEVNPITVDVYLDITVENISTLKDLTVKFDNYDEDLHYVKEVTDNSVKVDGIIPGIYSVTVSGTAIDTENNEYYINGNSVNAALFKHGSALNIEVQGLKVSPLIFKEIYYCGSRPEKGGVYFRDQFYEIYNNSADILYLDGIYFANLTPGTATTKLPIWPEADGNNYAYGERVWKFPGNGTEYPLAPGESCIISQFAANHQLDIYNPQSPIDGSSSEFEFNMNNPNFPDQAAYDMQHVFYQGKAEMGSIPQYLTSVFGGAYVIFRVPEGEAWDPVNDENMKTTDLSKPNSNVYYAKIPIKYVLDAVEAVNNESKMNAKRVPGVLDAGITWVGATYCGLGIARKLSTDEEGNPIIREETGTYIYQDTNNSTDDFERGVVPVMRRNGAKMPSWNHTL”, which “soluble on expression in E. coli” value is on record?
The value was “not soluble”.

Which “soluble on expression in E. coli” value does the source give for “MGSDKIHHHHHHMARNAKLDRLLTLVKALGESAEGLTLDEMAEVIGANRRTAERLRDLILVHFDLEEGVDDRHKRFRIPGTLPSPFIQPNVAEIAALKSLADTAHKAGSAQAPLLESLVGKVQAGLRREVKSRMAPDLEPLVRLQRHHVPAGPMIEHAPETVAQVQGAMMAGMCLEFDYLADGAAEPKWRRVIPVGLIHGPATYLIGKIPGRDLEPAPYRLDRIIAARVSNQPGAAGEDWDLDQWMSASFGIWREEGYEIVLRVAHESAERARKWRFHPQQMIEQDGEELIVRFHSGGLREIAEHLFTWGGEVRIEGPEELREMMRERLSAAGRAVV” here?
Its value is “not soluble”.

For “MVICLSTEISLVAATLNEIGNIATFLDKVEKELIYYNFEIIIVDDNSSDGTKEYLAERSLKDKNLHVIENPYRVGMLGSLKMGINSAKGKYCIVMDADLQHPPEAILSIIERLNHGCDIVVGSRYVNGGSAGDRNSYRALLSIGAQYLSYLFLRSARSTTDPMSGFFGFQTSMNHDFSYKNRFKLTDMGAKILLLLLAENQNCNVCDVGYVFRSRERGKSKIVSGMSFLERYMSELLDAMIVERQWKNRGCLEHHHHHH”, which “soluble on expression in E. coli” value is on record?
The value was “not soluble”.

For “GPGYNEPMAASDEVNLIESRTVVPLNTWVLISNFKVAYNILRRPDGTFNRHLAEYLDRKVTANANPVDGVFSFDVLIDRRINLLSRVYRPAYADQEQPPSILDLEKPVDGDIVPVILFFHGGSFAHSSANSAIYDTLCRRLVGLCKCVVVSVNYRRAPENPYPCAYDDGWIALNWVNSRSWLKSKKDSKVHIFLAGDSSGGNIAHNVALRAGESGIDVLGNILLNPMFGGNERTESEKSLDGKYFVTVRDRDWYWKAFLPEGEDREHPACNPFSPRGKSLEGVSFPKSLVVVAGLDLIRDWQLAYAEGLKKAGQEVKLMHLEKATVGFYLLPNNNHFHNVMDEISAFVNAE”, which “soluble on expression in E. coli” value is on record?
Its value is “soluble”.

Which “soluble on expression in E. coli” value does the source give for “GNSKSGALSKEILEELQLNTKFTEEELSSWYQSFLKECPSGRITRQEFQTIYSKFFPEADPKAYAQHVFRSFDANSDGTLDFKEYVIALHMTSAGKTNQKLEWAFSLYDVDGNGTISKNEVLEIVTAIFKMISPEDTKHLPEDENTPEKRAEKIWGFFGKKDDDKLTEKEFIEGTLANKEILRLIQFEPQKVKEKLKEKKL” here?
Its value is “soluble”.

With “MKKTLPKTEAPSSVGNGSDSPIEFDAIIRQVPDMDAAYVEIPFDVKTVYGKGRVRVNATFDGYPYTGYIVRMGLPCHILGLRQDIRRAIGKQPGDSVYVTLLPL” as the sequence, how does the “soluble on expression in E. coli” value read?
Its value is “soluble”.

With “MKTFKAVRFQIVNEHGRIIEYELEDGVIINKEESGTGWLLEIVISNEHYETFKEYQDNEQLLDIRVVITRPANDPALFESTVKSIKNFKTTMSIVFECHIYTLRQQYAESLLEQLIDDGLSGEELKKSFNRMMQSKPKLKDEKLEELEHHHHHH” as the sequence, how does the “soluble on expression in E. coli” value read?
The value was “soluble”.

Which “soluble on expression in E. coli” value does the source give for “MSDVRPPLPPFTAETAAQKVRAAEDGWNSRDPQRVSLAYSPDSVWRNRSTFVRGRERIVEFLSGKWQREQEYRLIKELWAFTGNRIAVRFAYEWHDDSGNWFRSYGNENWAFDEQGLMYERHASINDLPIREDQRLFRWLLGRRPDNHPSLGELGLLEHHHHHH” here?
Its value is “soluble”.

Which “soluble on expression in E. coli” value does the source give for “MGSDKIHHHHHHMRRLPPLNALQIFATVARHRSFTRAADALCVTQGAISRQIQSLEAHYGFALFMRHARGLTLTVEGEQLLPVVVESFARIEDISLKLTRQRTDLALKVPTCVMRWVLPRIMRFQREHPDLHVQMTTTWRHDVDFQSEPFDAAIVYGMSPGPDVAAVPLFDERLTPVCAPDLLEGRPLARVEDLACHTLLHPTRDHRDWRRWLDYAGAAGVDPDRGPSFDSLDLATSAATQGFGVALGDLTLSEEDFAARRLAMPLDIVQRTGARYYFVYPESVAQQQKIQRFSAWLDANRD” here?
The value was “not soluble”.

With “MTTSCLQEKIDKLQNTVHALLHKSNYMAGVYVDDLARLNNEIHEQINDLYPCHGKTAEQEAALCLSLLMGYSVSMYANSEDEAKKKTVLRRSQMILKNQLPSPLKIQLHTIYDKLLS” as the sequence, how does the “soluble on expression in E. coli” value read?
The value was “not soluble”.

For “MGSDKIHHHHHHMNLWTSTPPMLRQISVRAAMDILLHQGPTSRADLAKKTGLSKQTMSEVIRTLETAGWVRVKGIVSGKVGRSAVTYEVAPDAGFVIGMDIGATTIRVAIADIAGTIVHEVEKSAGEHGGEALLAHVSGVVEASLKKARVSRSKVLLAAVAMPGVIDPETGRLSLAPNLSEIGSLDVIKALQGIFRCDVIIENDVNAAVIGESWKGSGIGLDSVAFVSLGTGIGLGVLFNGKLMRGAKGAAGEIGYLPFGADPYNSESLERGALECAIGARGILERYGNPGDGGMTVRDILEAAEKGDAKALATVQETARLAALLVVSVHAMLDPGKIILGGNVGRNPLMVRMVKEALATSTRSSISLEASTLASRATLVGAVAIALNQLHNALFSPQDLPSEMRLPA”, which “soluble on expression in E. coli” value is on record?
The value was “not soluble”.

With “GVNSVAARVTELTGREVAAVAERGHSHRWHLYRVELADGTPLFVKALPDDAPALDGLFRAEALGLDWLGRSFGSPVPQVAGWDDRTLAMEWVDERPPTPEAAERFGHQLAAMHLAGAESFGATWDGYIGPLPMDNTPRSTWPEFYAEQRILPYLRRAADRGALTPGDVRLVEKVLDALDHLAGDPEPPARIHGDLWNGNVLWQDDGAVVIDPAAHGGHREADLAMLALFGLPYLDRVRDAYNEVAPLAEGWRARIPLHQLHPLLVHVCLFGAAYRTTLVDTARAALRA” as the sequence, how does the “soluble on expression in E. coli” value read?
Its value is “soluble”.

Source: the DeepSol protein solubility set
